These results are taken from patent US11649275B2, “Dual agonist fusion proteins” (Duke University, priority 2018, dated 2023).

Series [1] can be described thus: Pharmacokinetic study of radiolabeled ELP fusion depots after s.c. injection. The series is classed as in vivo, mice. To be noted: component of 1:1 mixed depot, 1000 nmol/kg each. The method, then:
Pharmacokinetic studies: Tyrosine residues on GLP1-ELP, ELP-FGF21, or GLP1-ELP-FGF21 fusion proteins were reacted with Na^125I radionuclide (Perkin Elmer) using Pierce Pre-Coated Iodination Tubes (Thermo Fisher Scientific) and the indirect method for iodination. Radiolabeled protein was purified from unreacted radionuclide with Zeba Spin Desalting Columns (Thermo Fisher Scientific). Activities of radiolabeled constructs were measured with an Atomlab 400 Dose Calibrator (Biodex, Shirley, N.Y.) and correlated to protein concentration. Mice received a single s.c. injection of radiolabeled fusion, and 10 μL blood samples were collected at frequent time points from the tail vein and stored at room temperature until radioactivity quantification. Sample counts were measured at the end of the study on a Wallac Wizard 1480 Automatic Gamma Counter (Perkin Elmer). An activity vs. count standard curve was used to convert sample counts to activities, and subsequently to moles of drug.
Pharmacokinetic analysis: The maximum serum concentration (Cmax) was recorded as observed, as well as time to reach Cmax (tmax). […] Absorption half-life (t1/2, abs) was estimated from the slope of the linear regression curve. When a drug administered at an extravascular site yields a terminal half-life greater than that resulting from an i.v. bolus, the terminal half-life reflects the absorption half-life.

Series [2] deals with db/db mice. Put plainly: Chronic dosing study, weekly s.c. for four weeks (GTT, % HbA1c, body weight, food intake). It is filed as in vivo. The method, then: (§1) Animals: In vivo studies were conducted in accordance with the AAALAC-accredited Duke Institutional Animal Care and Use Committee. 5-week-old B6.BKS(D)-Lepr^db/J (“db/db”) male mice were purchased from Jackson Laboratory (Bar Harbor, Me.) and maintained on a 12 h/12 h light/dark cycle with ad libitum access to food (LabDiet 5053) and water. Animals were group-housed and allowed 1-week acclimation before stratification into control and treatment groups based on baseline ambient blood glucose levels and body weights.
(§2) ELP fusion treatments: ELP fusion proteins were administered at 150-200 μM concentration via injection into the subcutaneous (s.c.) space on the hind flank. Animals received either a single s.c. injection for short-term studies or weekly s.c. injections for chronic studies. The “1:1 mixture” treatment group received a single injection containing an equimolar mixture of GLP1-ELP and ELP-FGF21, with the indicated dose referring to the dose of each respective fusion in the mixture. Vehicle control refers to PBS.
Food Intake: For food intake studies, animals were group-housed 4 per cage, and food pellets were weighed every 1-2 days. Total cage food intake was calculated for each time increment, averaged per animal, and summed over the course of the study to yield a cumulative food intake per mouse. N=8 treatment groups were divided into 2 cages, allowing for an n=2 food intake standard error calculation.

Series [3] has as its system db/db mice. Put plainly: Short-term co-treatment pilot study, 48 h after single s.c. injection. The series is classed as in vivo. The note with it: 48 h post-injection, 1000 nmol/kg s.c. As to the method: as §1, §2
Ambient blood glucose measurements: Blood glucose levels were measured from a tail vein puncture with an AlphaTRAK 2 Blood Glucose Meter (Zoetis, Parsippany-Troy Hills, N.J.) every 24 h, 1-2 h following onset of the light cycle. […] Areas under the curve (AUCs) were calculated with GraphPad Prism 8 software using the trapezoidal rule and setting a Y=0 baseline. […]

The target of series [4] is T1, murine β-Klotho and FGF receptor 1 (Mus musculus, UniProt P16092+Q99N32).
T1 construct: expressed in transfected cells; host or cells: HEK293
Put plainly: ERK phosphorylation assay (FGF21 receptor agonism, HEK293 cells). It is filed as cell-based. The note with it: compared to native FGF21. The method, then: ERK phosphorylation assay: For quantitative evaluation of FGF21 in vitro activity, a HEK293 cell line was previously generated that stably expresses murine β-Klotho and FGF receptor 1 and thereby enables FGF21-mediated ERK1/2 phosphorylation. Cells were seeded at 5×10^4 cells/cm^2 and adhered overnight. After serum starvation for 6 h, cells were treated with serial dilutions of FGF21-containing fusion proteins or native mouse FGF21 (ProSpec-Tany, East Brunswick, N.J.) for 5 min. Cells were lysed and assessed for phospho-ERK1/2 and total ERK1/2 content using the AlphaLISA Surefire Ultra Assay Kits (PerkinElmer) and the EnSpire Alpha Plate Reader (PerkinElmer). Phospho-ERK1/2 was normalized to total ERK1/2 and fit to a three-parameter dose-response curve to determine EC50s using GraphPad Prism 8 software (La Jolla, Calif.).

T1 sequence (Q99N32 whole entry): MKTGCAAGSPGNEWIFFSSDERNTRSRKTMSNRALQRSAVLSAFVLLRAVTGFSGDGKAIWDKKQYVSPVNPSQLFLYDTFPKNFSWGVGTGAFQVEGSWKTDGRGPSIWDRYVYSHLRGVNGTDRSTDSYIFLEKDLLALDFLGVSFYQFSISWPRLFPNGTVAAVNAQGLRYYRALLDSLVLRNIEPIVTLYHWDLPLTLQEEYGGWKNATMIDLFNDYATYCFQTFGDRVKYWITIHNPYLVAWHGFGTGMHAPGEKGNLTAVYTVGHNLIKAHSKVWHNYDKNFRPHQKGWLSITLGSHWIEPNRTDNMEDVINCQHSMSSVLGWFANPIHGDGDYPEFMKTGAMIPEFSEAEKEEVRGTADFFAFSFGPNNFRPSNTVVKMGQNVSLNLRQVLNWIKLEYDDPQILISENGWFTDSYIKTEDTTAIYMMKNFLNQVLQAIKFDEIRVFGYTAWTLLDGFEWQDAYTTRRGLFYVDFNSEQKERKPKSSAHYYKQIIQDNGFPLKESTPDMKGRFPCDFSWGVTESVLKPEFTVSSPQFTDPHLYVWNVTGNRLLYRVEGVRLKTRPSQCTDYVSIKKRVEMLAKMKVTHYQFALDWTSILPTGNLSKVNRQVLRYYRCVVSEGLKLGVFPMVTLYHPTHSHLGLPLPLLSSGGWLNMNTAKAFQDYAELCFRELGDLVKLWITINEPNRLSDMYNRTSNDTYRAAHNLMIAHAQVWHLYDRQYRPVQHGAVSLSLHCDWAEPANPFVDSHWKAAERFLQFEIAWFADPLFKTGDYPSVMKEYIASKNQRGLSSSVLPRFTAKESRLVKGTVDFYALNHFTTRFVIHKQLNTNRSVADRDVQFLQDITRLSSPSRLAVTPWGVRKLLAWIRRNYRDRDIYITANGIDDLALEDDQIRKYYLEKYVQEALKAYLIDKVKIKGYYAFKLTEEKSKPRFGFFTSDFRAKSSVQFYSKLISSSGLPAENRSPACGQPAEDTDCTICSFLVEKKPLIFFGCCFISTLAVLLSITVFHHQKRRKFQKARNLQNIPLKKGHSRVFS
T1 sequence (P16092 22-822): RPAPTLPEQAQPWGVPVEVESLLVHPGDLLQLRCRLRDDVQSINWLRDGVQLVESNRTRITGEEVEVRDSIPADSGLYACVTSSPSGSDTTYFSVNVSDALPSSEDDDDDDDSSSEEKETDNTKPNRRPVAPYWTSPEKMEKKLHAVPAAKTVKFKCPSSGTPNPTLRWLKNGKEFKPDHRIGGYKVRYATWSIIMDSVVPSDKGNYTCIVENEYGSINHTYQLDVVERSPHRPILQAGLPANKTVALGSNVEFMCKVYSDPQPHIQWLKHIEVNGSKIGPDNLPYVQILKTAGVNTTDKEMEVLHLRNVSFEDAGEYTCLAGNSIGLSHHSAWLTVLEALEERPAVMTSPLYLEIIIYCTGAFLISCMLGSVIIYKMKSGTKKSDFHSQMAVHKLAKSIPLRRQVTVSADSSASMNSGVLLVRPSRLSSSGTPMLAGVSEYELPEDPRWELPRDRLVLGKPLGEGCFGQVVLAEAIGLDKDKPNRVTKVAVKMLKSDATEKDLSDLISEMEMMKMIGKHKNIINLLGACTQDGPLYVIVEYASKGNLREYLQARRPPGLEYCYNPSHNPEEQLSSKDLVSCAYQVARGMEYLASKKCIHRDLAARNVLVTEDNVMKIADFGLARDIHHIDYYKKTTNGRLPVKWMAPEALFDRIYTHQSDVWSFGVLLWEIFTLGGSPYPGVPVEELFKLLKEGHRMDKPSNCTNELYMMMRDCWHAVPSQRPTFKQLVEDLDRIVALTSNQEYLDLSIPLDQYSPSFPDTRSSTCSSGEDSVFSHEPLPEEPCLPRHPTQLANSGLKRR

B1: ELP-FGF21: Single agonist control: ELP (120 repeats, 4:1 Val:Ala) fused to mutated murine FGF21; SEQ ID NO:14 (protein)
chain: GVGVPGVGVPGAGVPGVGVPGVGVPGVGVPGVGVPGAGVPGVGVPGVGVPGVGVPGVGVPGAGVPGVGVPGVGVPGVGVPGVGVPGAGVPGVGVPGVGVPGVGVPGVGVPGAGVPGVGVPGVGVPGVGVPGVGVPGAGVPGVGVPGVGVPGVGVPGVGVPGAGVPGVGVPGVGVPGVGVPGVGVPGAGVPGVGVPGVGVPGVGVPGVGVPGAGVPGVGVPGVGVPGVGVPGVGVPGAGVPGVGVPGVGVPGVGVPGVGVPGAGVPGVGVPGVGVPGVGVPGVGVPGAGVPGVGVPGVGVPGVGVPGVGVPGAGVPGVGVPGVGVPGVGVPGVGVPGAGVPGVGVPGVGVPGVGVPGVGVPGAGVPGVGVPGVGVPGVGVPGVGVPGAGVPGVGVPGVGVPGVGVPGVGVPGAGVPGVGVPGVGVPGVGVPGVGVPGAGVPGVGVPGVGVPGVGVPGVGVPGAGVPGVGVPGVGVPGVGVPGVGVPGAGVPGVGVPGVGVPGVGVPGVGVPGAGVPGVGVPGVGVPGVGVPGVGVPGAGVPGVGVPGVGVPGVGVPGVGVPGAGVPGVGVPGVGVPGVGVPGVGVPGAGVPGVGVPGVGVPGAYPIPDSSPLLQFGGQVRQRYLYTDDDQDTEAHLEIREDGTVVGAAHRSPESLLELKALKPGVIQILGVKASRFLCQQPDGALYGSPHFDPEACSFRERLLEDGYNVYQSEAHGLPLRLPQKDSPNQDATSWGPVRFLPMPGLLHEPQDQAGFLPPEPPDVGSSDPLSMVEGSQGRSPSYASG
As for B1, in series [1], the “day by which plasma levels dropped below 100 nM” value is no more than 4 days. Besides, the “fasting blood glucose levels” value in the series with db/db mice [2] (5 h fast, 3 days after the first dosing cycle, 1000 nmol/kg s.c.) was determined as 237 ± 21 mg/dL. The “% HbA1c elevation relative to control” value in the series with db/db mice [2] (four-week study) is “significantly reduced % HbA1c elevation relative to control”. Besides, the “effect on body weight / weight gain compared to vehicle” value with db/db mice [2] (four-week treatment period) is given as “did not induce a significant effect on body weight”. Besides, the “GTT AUC” value in the series on db/db mice [2] (i.p. glucose tolerance test 3 days after the first dosing cycle) is “significantly decreased GTT AUC compared to vehicle”. Besides, in the series on db/db mice [2] (prior to glucose challenge, 3 days after the first dosing cycle), the fasting plasma insulin result is on record as “equivalent levels of fasting plasma insulin”. Besides, in the series with db/db mice [3], the “body weight, % change from pre-injection weight” value was −0.9±0.3%. In addition, the “increase in FGF21 receptor EC50 on fusion of FGF21 to an ELP” value in series [4] is listed as “approximately twenty-fold”.
